This note sets out measurements from article PMC5453625.

Experiment [1] deals with human nectin-1 ectodomain (amino acids 30-335) (human) (UniProt Q15223). Briefly: SPR; BIAcore 3000, CM5 chip; […]) immobilised; […]; 25 C; HBS-EP (10 mM HEPES pH 7.4, 150 mM NaCl, 3 mM EDTA, 0.005% Tween 20); […]. On the technique in general: Surface plasmon resonance follows binding to a sensor surface in real time, without labels.
Experiment [2] addresses swine nectin-1 ectodomain (amino acids 30-335) (swine) (UniProt Q9GL76). The description is as above.
Chain of UniProt Q9GL76 (Q9GL76 30-335): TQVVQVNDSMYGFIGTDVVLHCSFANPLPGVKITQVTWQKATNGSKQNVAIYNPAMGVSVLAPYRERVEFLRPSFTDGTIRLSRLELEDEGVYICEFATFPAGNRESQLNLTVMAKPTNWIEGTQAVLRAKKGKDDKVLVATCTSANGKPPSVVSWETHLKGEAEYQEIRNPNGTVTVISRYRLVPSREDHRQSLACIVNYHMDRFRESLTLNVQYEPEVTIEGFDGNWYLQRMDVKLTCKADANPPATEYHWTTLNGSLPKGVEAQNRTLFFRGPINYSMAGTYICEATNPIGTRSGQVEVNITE

As a reminder, the Kd is the free concentration of one partner at which half of the binding sites on the other are occupied at equilibrium, for simple one-to-one binding. Lower therefore signals higher affinity. As a reminder, the koff is the first-order rate constant of dissociation. A high value points to fast dissociation. The term kon denotes the second-order rate constant of association. A high value points to faster complex formation.

Chain of UniProt Q15223 (Q15223 30-335): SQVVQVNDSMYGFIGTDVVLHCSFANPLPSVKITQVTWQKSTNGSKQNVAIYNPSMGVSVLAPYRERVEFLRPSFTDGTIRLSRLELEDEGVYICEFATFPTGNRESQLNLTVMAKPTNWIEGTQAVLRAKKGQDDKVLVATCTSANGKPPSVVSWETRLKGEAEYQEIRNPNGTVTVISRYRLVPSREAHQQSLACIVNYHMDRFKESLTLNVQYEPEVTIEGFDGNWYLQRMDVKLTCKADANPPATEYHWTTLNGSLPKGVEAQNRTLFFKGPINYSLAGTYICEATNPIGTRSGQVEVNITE

On to “PRV gD284 (pseudorabies virus glycoprotein D, residues 1-284, lacking the membrane-proximal loop) (domain or fragment)”, for which, in experiment [1], the Kd stood at 16.1 nM, the koff was determined as 0.0117 s⁻¹ and the kon stood at 725000 M⁻¹ s⁻¹. In experiment [2], this substance had a Kd of 18.4 nM, a koff of 0.0211 s⁻¹ and a kon of 1.15e+06 M⁻¹ s⁻¹.
